Earlier results, collected in paper PMC5672955.

Biological target: RNA polymerase (Escherichia coli) (UniProt P0A7Z4)

Sequence of UvrD (P03018 whole entry): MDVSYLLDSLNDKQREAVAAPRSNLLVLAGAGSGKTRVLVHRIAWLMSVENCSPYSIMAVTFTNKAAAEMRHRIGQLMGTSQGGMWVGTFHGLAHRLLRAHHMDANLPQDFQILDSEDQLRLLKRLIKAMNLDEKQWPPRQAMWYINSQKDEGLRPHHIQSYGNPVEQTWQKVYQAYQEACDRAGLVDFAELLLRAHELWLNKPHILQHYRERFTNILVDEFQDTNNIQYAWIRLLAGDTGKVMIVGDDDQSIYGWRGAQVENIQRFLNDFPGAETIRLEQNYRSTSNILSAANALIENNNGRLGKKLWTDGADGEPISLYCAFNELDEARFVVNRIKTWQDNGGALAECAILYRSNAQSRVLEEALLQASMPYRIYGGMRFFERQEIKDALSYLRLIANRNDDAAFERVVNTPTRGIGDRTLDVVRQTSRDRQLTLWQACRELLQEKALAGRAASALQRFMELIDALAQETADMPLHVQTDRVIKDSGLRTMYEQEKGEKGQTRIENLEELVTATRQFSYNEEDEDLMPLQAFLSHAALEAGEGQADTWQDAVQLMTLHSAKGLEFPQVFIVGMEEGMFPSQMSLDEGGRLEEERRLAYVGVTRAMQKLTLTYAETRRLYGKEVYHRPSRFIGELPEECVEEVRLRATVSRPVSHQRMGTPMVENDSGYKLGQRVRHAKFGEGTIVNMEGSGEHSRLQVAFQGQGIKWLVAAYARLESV

Kd: 35 nM
Substance: UvrD (from UniProt P03018)
